Reference: publication PMC11228805

Biological target: gp41 (Q567K/A582T/A532V/I535M/L543Q/K574R/S752F/I756F) of the HIV-1AD8 Tri FPPR Bam Envs with K574R (HIV-1 AD8)
Assay: gp120 shedding from virus particles

Substance	fold reduction of gp120 shedding against the Tri FPPR Bam Env	fold resistance to gp120 shedding (CD4mc+cold) against the Tri Bam Env
gp120 (Q114E) of the HIV-1AD8 Tri Bam, Tri FPPR Bam and Tri FPPR Bam-K574R Envs (natural protein)	3.9 fold	
gp120 (Q114E/K59A) of the HIV-1AD8 Tri FPPR Bam-K59A and Tri FPPR Bam-K59A/K574R Envs (natural protein)		40 times
